According to patent US20250361317A1 (Janssen / Centocor, published 2025):

T1: human EMR2 (ADGRE2, CD312) on cells (human, UniProt Q9UHX3 24-823)
T1 construct: also called huEMR2 full length; Adhesion G protein-coupled receptor E2
T1 sequence: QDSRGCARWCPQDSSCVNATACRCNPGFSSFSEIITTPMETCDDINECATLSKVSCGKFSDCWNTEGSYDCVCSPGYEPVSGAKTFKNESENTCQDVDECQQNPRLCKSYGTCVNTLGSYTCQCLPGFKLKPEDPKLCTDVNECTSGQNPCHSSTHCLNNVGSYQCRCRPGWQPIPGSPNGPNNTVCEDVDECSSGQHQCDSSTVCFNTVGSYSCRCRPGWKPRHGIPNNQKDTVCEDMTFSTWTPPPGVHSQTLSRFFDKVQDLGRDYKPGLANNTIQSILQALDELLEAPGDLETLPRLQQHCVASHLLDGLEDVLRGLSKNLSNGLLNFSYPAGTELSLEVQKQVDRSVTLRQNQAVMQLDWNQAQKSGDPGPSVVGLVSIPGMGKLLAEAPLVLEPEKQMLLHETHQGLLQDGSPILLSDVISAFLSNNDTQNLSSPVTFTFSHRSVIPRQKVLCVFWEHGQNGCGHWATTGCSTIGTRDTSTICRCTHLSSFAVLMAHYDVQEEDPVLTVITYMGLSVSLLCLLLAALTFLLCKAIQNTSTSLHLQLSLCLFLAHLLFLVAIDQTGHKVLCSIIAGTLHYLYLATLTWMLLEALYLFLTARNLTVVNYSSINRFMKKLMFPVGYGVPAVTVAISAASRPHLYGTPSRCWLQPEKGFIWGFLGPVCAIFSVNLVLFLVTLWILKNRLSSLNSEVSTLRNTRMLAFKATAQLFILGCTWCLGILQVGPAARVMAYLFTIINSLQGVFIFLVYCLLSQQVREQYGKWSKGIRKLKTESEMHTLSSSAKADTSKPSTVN

T2: EMR2W4, huEMR2 GAIN domain + GPS, D261-T540, with C-terminal Avi/6x His tag (human)
T2 construct: also called Human EMR2 GAIN domain protein
T2 chain: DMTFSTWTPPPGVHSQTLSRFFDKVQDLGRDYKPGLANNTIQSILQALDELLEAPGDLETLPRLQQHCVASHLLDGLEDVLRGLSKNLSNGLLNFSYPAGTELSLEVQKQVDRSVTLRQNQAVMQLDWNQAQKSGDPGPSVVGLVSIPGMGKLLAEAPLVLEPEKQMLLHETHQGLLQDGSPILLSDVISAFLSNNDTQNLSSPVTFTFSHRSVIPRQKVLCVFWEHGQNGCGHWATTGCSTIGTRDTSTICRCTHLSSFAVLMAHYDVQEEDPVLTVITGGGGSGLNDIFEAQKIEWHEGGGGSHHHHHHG

B1: EMVBB27 (bispecific antibody, human IgG1, kappa, L234A L235A)
heavy chain 1 (Vb17 arm, B17B21-LC-N33S Fab): QVQLQESGPGLVKPSETLSLTCTVSGYSITSGYFWNWIRQPPGKGLEWIGYISYDGSNNYNPSLKSRVTISRDTSKNQFSLKLSSVTAADTAVYYCASPSPGTGYAVDYWGQGTLVTVSSASTKGPSVFPLAPSSKSTSGGTAALGCLVKDYFPEPVTVSWNSGALTSGVHTFPAVLQSSGLYSLSSVVTVPSSSLGTQTYICNVNHKPSNTKVDKKVEPKSCDKTHTCPPCPAPEAAGGPSVFLFPPKPKDTLMISRTPEVTCVVVSVSHEDPEVKFNWYVDGVEVHNAKTKPREEQYNSTYRVVSVLTVLHQDWLNGKEYKCKVSNKALPAPIEKTISKAKGQPREPQVYTLPPSREEMTKNQVSLWCLVKGFYPSDIAVEWESNGQPENNYKTTPPVLDSDGSFFLYSKLTVDKSRWQQGNVFSCSVMHEALHNRFTQKSLSLSPGK
light chain 1 (Vb17 arm, B17B21-LC-N33S Fab): DIQMTQSPSSLSASVGDRVTITCRSSQSLVHSSGNTYLHWYQQKPGKAPKFLIYKVSNRFSGVPSRFSGSGSGTDFTLTISSLQPEDFATYYCSQSTHVPFTFGQGTKLEIKRTVAAPSVFIFPPSDEQLKSGTASVVCLLNNFYPREAKVQWKVDNALQSGNSQESVTEQDSKDSTYSLSSTLTLSKADYEKHKVYACEVTHQGLSSPVTKSFNRGEC
heavy chain 2 (EMR2 arm, EMR2B57-LH-spFv fused to Fc): QSALTQPASVSGSPGQSITISCTGTSSDVGGYNYVSWYQQHPGCAPKLMIYEVSYRPSGVSNRFSGSKSGNTASLTISGLQAEDEADYYCSSYTSSSTYVVFGGGTKLTVLGGGSGGSGGCPPCGGSGGEVQLVESGGGLVQPGGSLRLSCAASGFTFRSYWMHWVRQAPGKGLVWVSRISSGGSTTNYADSVKGRFTISRDNAKNTLYLQMNSLRAEDTAIYYCARGDNYYDSPYFDYWGCGTLVTVSSEPKSSDKTHTCPPCPAPEAAGGPSVFLFPPKPKDTLMISRTPEVTCVVVSVSHEDPEVKFNWYVDGVEVHNAKTKPREEQYNSTYRVVSVLTVLHQDWLNGKEYKCKVSNKALPAPIEKTISKAKGQPREPQVYTLPPSREEMTKNQVSLSCAVKGFYPSDIAVEWESNGQPENNYKTTPPVLDSDGSFFLVSKLTVDKSRWQQGNVFSCSVMHEALHNHYTQKSLSLSPGK
notes: also called EMVBB27.003; TPP000263194
B2: EMVBB6 (bispecific antibody, human IgG1, lambda, L234A L235A)
heavy chain 1 (Vb17 arm, B17B852-G34R-LH-spFv fused to Fc): DIQMTQSPSSLSASVGDRVTITCRSSQSLVHSNRNTYLHWYQQKPGCAPKLLIYKVSNRFSGVPSRFSGSGSGTDFTLTISSLQPEDFATYYCSQSTHVPFTFGQGTKLEIKGGGSGGSGGCPPCGGSGGQVQLQESGPGLVKPSETLSLTCTVSGYSITSGYFWNWIRQFPGKGLEWMGYISYDGSNNYNPSLKSRITISRDTSKNQFSLKLSSVTAADTAVYYCASPSPGTGYAVDYWGCGTTVTVSSEPKSSDKTHTCPPCPAPEAAGGPSVFLFPPKPKDTLMISRTPEVTCVVVSVSHEDPEVKFNWYVDGVEVHNAKTKPREEQYNSTYRVVSVLTVLHQDWLNGKEYKCKVSNKALPAPIEKTISKAKGQPREPQVYTLPPSREEMTKNQVSLWCLVKGFYPSDIAVEWESNGQPENNYKTTPPVLDSDGSFFLYSKLTVDKSRWQQGNVFSCSVMHEALHNHYTQKSLSLSPGK
heavy chain 2 (EMR2 arm, EMR2B361 Fab): EVQLVQSGGGLVKPGGSLRLSCVASGFIFRSYSMNWVRQAPGKGLEWVSSISSSSSYIYYADSVKGRFTISRDNAKNSLYLQMDSLRAEDTAVYYCARREYGGPFDYWGQGTLVTVSSASTKGPSVFPLAPSSKSTSGGTAALGCLVKDYFPEPVTVSWNSGALTSGVHTFPAVLQSSGLYSLSSVVTVPSSSLGTQTYICNVNHKPSNTKVDKKVEPKSCDKTHTCPPCPAPEAAGGPSVFLFPPKPKDTLMISRTPEVTCVVVSVSHEDPEVKFNWYVDGVEVHNAKTKPREEQYNSTYRVVSVLTVLHQDWLNGKEYKCKVSNKALPAPIEKTISKAKGQPREPQVYTLPPSREEMTKNQVSLSCAVKGFYPSDIAVEWESNGQPENNYKTTPPVLDSDGSFFLVSKLTVDKSRWQQGNVFSCSVMHEALHNRFTQKSLSLSPGK
light chain 2 (EMR2 arm, EMR2B361 Fab): QSVLTQPPSVFAAPGEKVTISCSGSSSNIGNDYVSWYQQLPGTAPKLLIYDNNKRPSGIPDRFSGSKSGTSATLGITGLQTGDEADYYCGTWDSSLSAGYVFGTGTKVTVLGQPKAAPSVTLFPPSSEELQANKATLVCLISDFYPGAVTVAWKADSSPVKAGVETTTPSKQSNNKYAASSYLSLTPEQWKSHRSYSCQVTHEGSTVEKTVAPTECS
notes: also called TPP000258023
B3: EMVBB7 (bispecific antibody, human IgG1, lambda, L234A L235A)
heavy chain 1 (Vb17 arm, B17B852-G34R-LH-spFv fused to Fc): B2 heavy chain 1 (Vb17 arm, B17B852-G34R-LH-spFv fused to Fc)
heavy chain 2 (EMR2 arm, EMR2B410 Fab): EVQLVESGGGLVQPGGSLRLSCAASGFTFSSYWMHWVRQVPGKGLVWVSRISSHGSSTSYADSVKGRFTISRDNAKNALYLQMNSLRAEDTAVYYCARGGNYYDSPYFDYWGQGTLVTVSSASTKGPSVFPLAPSSKSTSGGTAALGCLVKDYFPEPVTVSWNSGALTSGVHTFPAVLQSSGLYSLSSVVTVPSSSLGTQTYICNVNHKPSNTKVDKKVEPKSCDKTHTCPPCPAPEAAGGPSVFLFPPKPKDTLMISRTPEVTCVVVSVSHEDPEVKFNWYVDGVEVHNAKTKPREEQYNSTYRVVSVLTVLHQDWLNGKEYKCKVSNKALPAPIEKTISKAKGQPREPQVYTLPPSREEMTKNQVSLSCAVKGFYPSDIAVEWESNGQPENNYKTTPPVLDSDGSFFLVSKLTVDKSRWQQGNVFSCSVMHEALHNRFTQKSLSLSPGK
light chain 2 (EMR2 arm, EMR2B410 Fab): QSALTQPASVSGSPGQSITISCTGTSSDVGGYNYVSWYQQHPGKAPKLMIYEVSYRPSGISNRFSGSKSGDTASLTISGLQAEDEADYYCSSYTSSSTYVVFGGGTKVTVLGQPKAAPSVTLFPPSSEELQANKATLVCLISDFYPGAVTVAWKADSSPVKAGVETTTPSKQSNNKYAASSYLSLTPEQWKSHRSYSCQVTHEGSTVEKTVAPTECS
notes: also called TPP000258024

What was measured:
[1] = target: T1, human EMR2 (ADGRE2, CD312) on cells; test: flow cytometry, median AF647 of live cells, MOLM 13 cells, 1 hour at 37 C
[2] = target: T3, T-cell receptor with TRBV19 (Vβ17) beta chain on human T cells (human); test: flow cytometry, % TRBV19+ T cells of live human pan-T cells, 1 hour at 37 C
T3 construct: whole, on cells; also called Vb17; TRBV19+ T cells

[3] = target: T1, human EMR2 (ADGRE2, CD312) on cells; test: flow cytometry, median AF647 of live cells, OCI-AML5 WT cells, 1 hour at 37 C
[4] = target: T2, EMR2W4, huEMR2 GAIN domain + GPS, …; test: SPR, row 'SPR (KD) / EMR2' of the Forced Degradation table; stress condition of the KD and EMR2 construct not named on the sheet

T3 sequence (A0A075B6N1 22-114): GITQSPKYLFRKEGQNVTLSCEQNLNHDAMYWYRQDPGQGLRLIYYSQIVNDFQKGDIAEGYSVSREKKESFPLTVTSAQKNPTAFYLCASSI

Row | Binder | EC50 [1] | Max (MFI) [1] | EC50 [2] | Max % TRV19+ [2] | EC50 [3] | Max (MFI) [3] | Kd [4]
1 | B1 | 301 nM | 420000 MFI | 8.03 nM | 6.62% | 296 nM | 250000 MFI | –
2 | B2 | 12.6 nM | 330000 MFI | 14.5 nM | 9.15% | 15.2 nM | 250000 MFI | 0.186 nM
3 | B3 | – | – | – | – | – | – | 1.47 nM
